Experimental data taken from US9068161B2, “Laccases and uses thereof” (DEINOVE, priority 2010, dated 2015).

How the values were obtained:
[1] = Laccase assay, overall conclusion on recombinant enzyme; assay type: biochemical; settings: in the tested conditions
Protocol: (§1) Standard assays for laccase activity were performed at the temperature range from 30° C. to 90° C. by measurement of enzymatic oxidation of substrates at appropriate wavelength. The reaction was performed in presence of a substrate concentration range, 0.05 mg/mL of purified enzyme and 1 mM prepared in 0.1M citrate-phosphate buffer pH8.
Standard assays were performed using the following substrates: 2,6 DMP, 4-methyl DMP, synapic acid, syringic acid, guaiacol, ABTS, paraphenylenediamine and ferulic acid.
Reagent A (185 μl) was mixed with Reagent B (10 μl). The mixture was equilibrated to 45° C. or 60° C. The absorbance at 470 nm was monitored until constant, using a suitably thermoregulated spectrophotometer. Then Reagent C (5 μl) was added and the increase in A470 nm was recorded for 30 minutes. The ΔA470 nm/minute was obtained using the maximum linear rate for the Test, Control and Blank, Blank being mixture without enzyme and Control being mixture with laccase from Trametes versicolor (T. versicolor, commercial enzyme) replacing Laccase enzyme solution (Reagent C).
Other substrates, different from 2,6 DMP such as 4-methyl DMP, synapic acid, syringic acid, guaiacol, ABTS, paraphenylenediamine and ferulic acid have also been tested at optimal concentration for each substrate (as shown in Tables 1A and 1B).

[2] = Temperature and pH optimum of laccase activity; assay type: biochemical; settings: 2,6 DMP as substrate
Protocol: as §1
In another series of experiments, the laccase activity according to the invention, was also tested in different conditions of temperature and pH using various substrates.

[3] = substrate: COc1cccc(OC)c1O; test: Laccase assay, Laccase 2 activity (oxidation of substrates, spectrophotometric); assay type: biochemical, Deinococcus cellulolysiticus DRH46; settings: other: 60° C., pH 8, 0.1M citrate-phosphate buffer, 0.05 mg/mL purified enzyme
Description: (§2) Two enzymes having laccase activity have been characterized from Deinococcus cellulolysiticus DRH46 (namely laccase 1, laccase 2), and one enzyme having laccase activity has been characterized from Deinococcus maricopensis DSM 21211 (i.e., laccase 3). The amino acid sequences of laccase 1, laccase 2 and laccase 3 are represented in SEQ ID NO: 2, 4 and 6, respectively.
(§3) As mentioned in Example 1, nucleic acids encoding the laccase 1, 2 and 3 enzymes comprising the amino acid sequence of SEQ ID NO: 2, 4 or 6 respectively, were cloned into the pETDEST42 vector according to conventional recombinant techniques. In each vector, the cloned nucleic acid was cloned in frame with a 6(His) tag (SEQ ID NO: 7), to facilitate purification of the recombinant protein.
(§4) E. coli cells harboring the recombinant nucleic acid are prepared and grown in 4 liters of LB medium. Induction of the enzyme production is performed overnight in the presence of 1 mM IPTG and 2 mM of […]. […]
(§5) The assay is performed at T=45° C. and 60° C., pH=8. The absorbance was measured at A470 nm and the measure was carried out using Continuous Spectrophotometric Rate Determination. […]
(§6) Reagent A (185 μl) was mixed with Reagent B (10 μl). […] The absorbance at 470 nm was monitored until constant, using a suitably thermoregulated spectrophotometer. Then Reagent C (5 μl) was added and the increase in A470 nm was recorded for 30 minutes. […]

[4] = substrate: COc1ccccc1O; test: as above; assay type: biochemical, Deinococcus cellulolysiticus DRH46; settings: other: 60° C., pH 8, 0.1M citrate-phosphate buffer, 0.05 mg/mL purified enzyme
Description: as §2, §3, §4, §5, §6

[5] = substrate: COc1cccc(OC)c1O; test: Laccase assay, Laccase 1 activity (oxidation of substrates, spectrophotometric); assay type: biochemical, Deinococcus cellulolysiticus DRH46; settings: other: 60° C., pH 8, 0.1M citrate-phosphate buffer, 0.05 mg/mL purified enzyme
Description: as §2, §3, §4, §5, §6

[6] = substrate: COc1ccccc1O; test: as above; assay type: biochemical, Deinococcus cellulolysiticus DRH46; settings: other: 60° C., pH 8, 0.1M citrate-phosphate buffer, 0.05 mg/mL purified enzyme
Description: as §2, §3, §4, §5, §6

Molecule | Laccase activity of the recombinant enzyme [1] | Optimal pH [2] | Optimal temperature [2] [°C] | Km [3] [µM] | Km [4] [µM] | Km [5] [µM] | Km [6] [µM]
Laccase 1: enzyme having laccase activity from Deinococcus cellulolysiticus DRH46, amino acid sequence SEQ ID NO: 2, recombinant with 6(His) tag (protein, 6xHis tag; Laccase 1 derived from Deinococcus cellulolyticus DRH46) MKQRLTAAALLTALLSSCAMKNPDVISYQDPEPLAGQRSGKAAEFTLTAQKSRLDLAGQSVEALTYNGTFPGPLLTLKAGEDVRITLKNNLSEPTNLHLHGLPLSPEVDDPFVVVPPGGSHTYAFQVPEEVHGTFWYHTHTHGASAAQLFSGLAGPLLVEAAKPNNPIEHMETHTVVFKDLPGAQHADDGVLMNGRENTLLVNGLVSPTLKTENSWVQLRLINASNARYLRLKLDDGLLQVVARDGIDLPGMERAQELLLTPGERADVLVSLQDHQNLKLQNLPYDRGVHSMGSHSGHTESKTAVVLTLQGPQKPGASVPRVETAPPPFLQLQGNEKVRKVILQETMQPVKFFINGRSFDMNRVDFHVSEGSTEIWELQNTTEMDHPFHLHTFPMQLIRIGGKEVPPVWKDTVNIPKNSTVTVAVHFKGFTGKTVFHCHIAEHEEAGMMGLLQVHPSGTALPASLEPIEPTVGPGEDAQHGH | fully active | 8 | 90 |  |  |  | 
Deinococcus cellulolysiticus DRH46 laccase 2, recombinant, SEQ ID NO: 4 (Deinococcus cellulosilyticus NBRC 106333 = KACC 11606) (protein) PKGSPMTEYHNPAEVQASRTEKGSTFTLTAAETSITLDGKEVKAQLFNQSFPGPQLTLQAGEQVNLTLKNDLREPTNLHLHGLTLPAGVDDPFLQVQPGESHTYSFTVPQGLHGTFWYHTHTHGHLGTQLFQGLAGPLIVEDPTFDSHIQGMETHTVVLKDLPVEVQDSDGTRMNGREGKLLVNGLSSPTLKTESSWVRLRLINASNARYDLLKLSGSAFLHVIAKDGIDLPKTEQVKELLLTPGERADVLISVQDQQDLRLENHPYDRGVHEMDGGHQGHTPSTPEVLLTLQGKKGSVSASVPQPALQPRPFLKVTGNEAIRKVVLQETMQPVKFFINGRTFDMNRVDFHVSEGTTEIWEVENQTEMDHPFHLHTFPVQVLSVNGQEVPPVWKDTVNVPAKAKVQVAVKFEGFTGKTVFHCHIAEHEEEGMMGVLQVHPAGEALPASLTPTLPPAAASEDMPDMPGMDHSGH |  |  |  | 992 ± 141 | 5074 ± 343 |  | 
Deinococcus cellulolysiticus DRH46 laccase 1, recombinant, SEQ ID NO: 2 (Deinococcus cellulosilyticus NBRC 106333 = KACC 11606) (protein) NPDVISYQDPEPLAGQRSGKAAEFTLTAQKSRLDLAGQSVEALTYNGTFPGPLLTLKAGEDVRITLKNNLSEPTNLHLHGLPLSPEVDDPFVVVPPGGSHTYAFQVPEEVHGTFWYHTHTHGASAAQLFSGLAGPLLVEAAKPNNPIEHMETHTVVFKDLPGAQHADDGVLMNGRENTLLVNGLVSPTLKTENSWVQLRLINASNARYLRLKLDDGLLQVVARDGIDLPGMERAQELLLTPGERADVLVSLQDHQNLKLQNLPYDRGVHSMGSHSGHTESKTAVVLTLQGPQKPGASVPRVETAPPPFLQLQGNEKVRKVILQETMQPVKFFINGRSFDMNRVDFHVSEGSTEIWELQNTTEMDHPFHLHTFPMQLIRIGGKEVPPVWKDTVNIPKNSTVTVAVHFKGFTGKTVFHCHIAEHEEAGMMGLLQVHPSGTALPASLEPIEPTVGPGEDAQHGH |  |  |  |  |  | 798 ± 35 | 3046 ± 183
Laccase 2: enzyme having laccase activity from Deinococcus cellulolysiticus DRH46, amino acid sequence SEQ ID NO: 4, recombinant with 6(His) tag (protein, 6xHis tag; Laccase 2 derived from Deinococcus cellulolyticus DRH46) MIRTLTSLTLLTVALTACAPKGSPMTEYHNPAEVQASRTEKGSTFTLTAAETSITLDGKEVKAQLFNQSFPGPQLTLQAGEQVNLTLKNDLREPTNLHLHGLTLPAGVDDPFLQVQPGESHTYSFTVPQGLHGTFWYHTHTHGHLGTQLFQGLAGPLIVEDPTFDSHIQGMETHTVVLKDLPVEVQDSDGTRMNGREGKLLVNGLSSPTLKTESSWVRLRLINASNARYDLLKLSGSAFLHVIAKDGIDLPKTEQVKELLLTPGERADVLISVQDQQDLRLENHPYDRGVHEMDGGHQGHTPSTPEVLLTLQGKKGSVSASVPQPALQPRPFLKVTGNEAIRKVVLQETMQPVKFFINGRTFDMNRVDFHVSEGTTEIWEVENQTEMDHPFHLHTFPVQVLSVNGQEVPPVWKDTVNVPAKAKVQVAVKFEGFTGKTVFHCHIAEHEEEGMMGVLQVHPAGEALPASLTPTLPPAAASEDMPDMPGMDHSGH | fully active | 8 | 70 |  |  |  | 
